± gives the uncertainty stated by the source.
B1: Cold shock protein CspB, residues 1 to 66; numbered along this chain, P41016 (parent)
chain: MQRGKVKWFNNEKGYGFIEVEGGSDVFVHFTAIQGEGFKTLEEGQEVSFEIVQGNRGPQAANVVKL
B2: POU domain, class 2, transcription factor 3, residues 186 to 260; numbered along this chain, Q9UKI9 (parent)
chain: SDLEELEKFAKTFKQRRIKLGFTQGDVGLAMGKLYGNDFSQTTISRFEALNLSFKNMCKLKPLLEKWLNDAESSP

Variants of: B1
Assay: abundance fitness (aPCA) (normalised: wild type 0, dead -1); higher = more abundant; growth selection in yeast, the domain comes from the species named
Details: Bacillus caldolyticus

Abundance fitness: each site, then its substitutions
T31: Y -0.3 ± 0.055
Q45: N -0.005 ± 0.082
A61: Q 0.012 ± 0.047
K65: I 0.04 ± 0.076, M -0.078 ± 0.048, A 0.002 ± 0.051
G22: I -0.027 ± 0.059, R -0.011 ± 0.034
N11: E -0.027 ± 0.068
Q34: V 0.048 ± 0.045
G37: A -0.082 ± 0.035
V26: P -0.566 ± 0.038
V6: H -0.863 ± 0.084, T -0.002 ± 0.048
R3: Q -0.021 ± 0.041, T -0.024 ± 0.059
A60: S -0.14 ± 0.034, E -0.812 ± 0.073
I33: D -0.369 ± 0.057
G44: A -0.049 ± 0.037
L66: S -0.016 ± 0.04
G57: P -0.278 ± 0.042
E19: I -0.021 ± 0.059, Q 0.009 ± 0.057
P58: Q -0.015 ± 0.052
F27: N -0.335 ± 0.1
V52: A 0.029 ± 0.037
K39: L -0.059 ± 0.034, E -0.114 ± 0.06
G54: H 0.045 ± 0.11
N55: C -0.089 ± 0.17, W 0.002 ± 0.22
Y15: Q -0.19 ± 0.034
K13: Q -0.072 ± 0.052
E12: P 0.036 ± 0.032, V -0.064 ± 0.032
E42: Y -0.036 ± 0.059, M -0.006 ± 0.048, K 0.017 ± 0.06
V63: M -0.283 ± 0.05, L -0.018 ± 0.03
F38: Q -0.005 ± 0.064, N 0.004 ± 0.14, D -0.12 ± 0.054
I51: F -0.082 ± 0.079
G16: F -0.937 ± 0.071, W -1.18 ± 0.13
G14: T -0.383 ± 0.039
N62: D 0.189 ± 0.42
T40: K -0.065 ± 0.048
E36: Q 0.021 ± 0.079

Variants of: B2
Assay: as above
Details: Homo sapiens

Abundance fitness: each site, then its substitutions
D70: N -0.066 ± 0.12, H -0.131 ± 0.15, F -0.059 ± 0.11, G -0.006 ± 0.031, M -0.103 ± 0.058, I -0.02 ± 0.062, Q 0.003 ± 0.054, Y -0.021 ± 0.062, E 0.027 ± 0.043, V -0.096 ± 0.036, L -0.09 ± 0.04, K -0.046 ± 0.058, P -0.405 ± 0.064, C -0.201 ± 0.072, A -0.059 ± 0.043, S -0.063 ± 0.038, R -0.049 ± 0.031, T 0.082 ± 0.064
N69: T 0.033 ± 0.047, F 0.061 ± 0.068, S 0.006 ± 0.04, M -0.008 ± 0.047, K -0.125 ± 0.053, I 0.018 ± 0.059, H 0.083 ± 0.13, P -0.326 ± 0.067, V -0.028 ± 0.036, W 0.014 ± 0.05, D 0.026 ± 0.059, Q 0.033 ± 0.052, G 0.042 ± 0.033, L -0.068 ± 0.037, E 0.002 ± 0.04, A -0.029 ± 0.045, Y -0.081 ± 0.099
L68: Q -0.311 ± 0.054, F -0.312 ± 0.12, I 0.006 ± 0.093, S -0.285 ± 0.046, G -0.563 ± 0.041, K -0.809 ± 0.12, Y -0.298 ± 0.074, D -0.733 ± 0.14, P -0.749 ± 0.22, W -0.43 ± 0.049, M -0.109 ± 0.081, H -0.358 ± 0.19, C -0.153 ± 0.052, T -0.317 ± 0.068, N -0.673 ± 0.13, R -0.626 ± 0.046, V -0.052 ± 0.037, A -0.114 ± 0.043, E -0.564 ± 0.07
A71: T -0.005 ± 0.06, V 0.01 ± 0.038, P -0.067 ± 0.067, M -0.017 ± 0.052, R -0.025 ± 0.03, I -0.074 ± 0.16, W -0.076 ± 0.039, N 0.093 ± 0.13, H 0.047 ± 0.066, Q 0.036 ± 0.054, G -0.156 ± 0.033, K 0.022 ± 0.054, E -0.01 ± 0.042, D -0.322 ± 0.063, Y -0.271 ± 0.14, C -0.169 ± 0.073, S -0.059 ± 0.042, L 0.017 ± 0.035
P62: G -0.085 ± 0.031, Q -0.167 ± 0.054, C -0.201 ± 0.062, H -0.025 ± 0.12, Y -0.624 ± 0.24, A -0.16 ± 0.039, N -0.24 ± 0.13, F -0.191 ± 0.1, R -0.149 ± 0.032, E -0.118 ± 0.041, V -0.128 ± 0.036, K -0.036 ± 0.047, I -0.082 ± 0.097, T -0.163 ± 0.051, W -0.365 ± 0.04
L64: K -1.01 ± 0.14, Q -0.836 ± 0.12, C -0.148 ± 0.055, F -0.135 ± 0.077, Y -0.221 ± 0.073, G -0.784 ± 0.054, R -0.83 ± 0.071, P -0.802 ± 0.1, S -0.743 ± 0.067, N -0.776 ± 0.36, W -0.981 ± 0.089, I -0.224 ± 0.063, T -0.462 ± 0.084, E -0.888 ± 0.11, D -0.557 ± 0.16, V -0.197 ± 0.036
E72: T -0.078 ± 0.055, F -0.24 ± 0.065, P -0.269 ± 0.058, V -0.043 ± 0.04, A -0.033 ± 0.045, L -0.173 ± 0.036, Y -0.186 ± 0.1, I -0.213 ± 0.11, D -0.037 ± 0.058, S -0.084 ± 0.042, G -0.089 ± 0.031, K -0.133 ± 0.049, C -0.071 ± 0.049, W -0.179 ± 0.041, N -0.002 ± 0.06, Q -0.026 ± 0.055, R -0.122 ± 0.032
L60: E -0.847 ± 0.095, D -0.601 ± 0.11, W -0.074 ± 0.032, H -0.285 ± 0.14, T -0.039 ± 0.04, Q -0.242 ± 0.057, G -0.79 ± 0.055, Y -0.117 ± 0.052, M -0.062 ± 0.055, A -0.081 ± 0.035, K -0.106 ± 0.058, V -0.02 ± 0.032, R -0.519 ± 0.04, I -0.067 ± 0.059, N -0.395 ± 0.068, F -0.079 ± 0.066, P -0.855 ± 0.14
K61: Q -0.017 ± 0.041, Y -0.108 ± 0.08, H -0.183 ± 0.094, I -0.128 ± 0.063, F -0.324 ± 0.092, E -0.273 ± 0.051, W -0.181 ± 0.041, S -0.153 ± 0.041, D -0.898 ± 0.2, L -0.198 ± 0.041, A -0.05 ± 0.039, N -0.628 ± 0.14, C -0.194 ± 0.083, R -0.02 ± 0.032, V -0.065 ± 0.036, M -0.133 ± 0.045, G -0.241 ± 0.032, P -0.829 ± 0.15, T -0.254 ± 0.05
E65: M 0.043 ± 0.058, R -0.197 ± 0.036, P -0.58 ± 0.083, H -0.05 ± 0.32, K 0.042 ± 0.057, C -0.033 ± 0.064, A -0.07 ± 0.033, F -0.118 ± 0.059, V -0.095 ± 0.033, W -0.211 ± 0.041, Y -0.215 ± 0.074, D -0.031 ± 0.061, N -0.047 ± 0.25, Q -0.109 ± 0.057, T -0.133 ± 0.054, I 0.023 ± 0.13, S -0.096 ± 0.037, L -0.043 ± 0.033
P75: S -0.067 ± 0.071, E -0.017 ± 0.074, A 0.044 ± 0.066, W -0.183 ± 0.12, M -0.059 ± 0.097, L 0.022 ± 0.07, R -0.044 ± 0.053, K -0.128 ± 0.15, Q -0.086 ± 0.089, H -0.044 ± 0.088, C -0.076 ± 0.15, G 0.011 ± 0.049, F -0.185 ± 0.17
K66: C -0.063 ± 0.056, W -0.161 ± 0.043, D 0.018 ± 0.051, E -0.061 ± 0.041, N -0.019 ± 0.084, H -0.104 ± 0.076, R -0.024 ± 0.032, S -0.147 ± 0.041, M -0.157 ± 0.059, Y -0.132 ± 0.1, Q -0.036 ± 0.057, A -0.055 ± 0.035, V -0.066 ± 0.035, I -0.142 ± 0.13, G -0.038 ± 0.03, T -0.007 ± 0.045, F -0.248 ± 0.11, P -0.544 ± 0.08
L63: E -0.127 ± 0.039, H 0.011 ± 0.061, W -0.07 ± 0.037, Y -0.173 ± 0.11, A 0.024 ± 0.039, G -0.06 ± 0.03, Q -0.108 ± 0.055, F -0.221 ± 0.079, I 0.072 ± 0.061, N -0.026 ± 0.065, M -0.027 ± 0.042, P -0.092 ± 0.047, S -0.055 ± 0.036, C -0.031 ± 0.054, V -0.032 ± 0.032, R -0.022 ± 0.03, T -0.059 ± 0.053
S74: Q -0.017 ± 0.055, G -0.084 ± 0.032, T -0.034 ± 0.045, V 0.039 ± 0.033, L -0.119 ± 0.042, I -0.033 ± 0.081, F -0.08 ± 0.11, Y -0.107 ± 0.079, K 0.036 ± 0.07, E -0.172 ± 0.07, D -0.065 ± 0.075, H 0.058 ± 0.081, C -0.009 ± 0.06, M -0.131 ± 0.075, W -0.059 ± 0.057, R -0.038 ± 0.036
S73: N 0.003 ± 0.061, H -0.017 ± 0.066, F -0.077 ± 0.059, L -0.078 ± 0.039, D -0.003 ± 0.067, T -0.049 ± 0.051, E -0.04 ± 0.043, P -0.077 ± 0.065, R -0.113 ± 0.031, V -0.038 ± 0.039, Q -0.059 ± 0.047, Y -0.121 ± 0.078, A -0.012 ± 0.044, W -0.173 ± 0.038, M -0.088 ± 0.047, K -0.06 ± 0.058, C -0.087 ± 0.057, G -0.023 ± 0.03
W67: C -0.282 ± 0.053, S -0.741 ± 0.066, D -0.706 ± 0.16, N -0.909 ± 0.24, F -0.004 ± 0.056, A -0.603 ± 0.058, R -0.731 ± 0.054, M -0.306 ± 0.056, L -0.246 ± 0.037, T -0.612 ± 0.085, G -0.804 ± 0.045, Q -0.761 ± 0.1, I -0.419 ± 0.14, H -0.44 ± 0.15, E -0.696 ± 0.073, Y 0.005 ± 0.064
K59: M -0.056 ± 0.043, S -0.033 ± 0.036, H -0.015 ± 0.21, I -0.037 ± 0.1, V -0.086 ± 0.032, T -0.007 ± 0.043, W -0.129 ± 0.038, P -0.733 ± 0.081, G -0.086 ± 0.027, N -0.026 ± 0.061, Q -0.03 ± 0.047
